From article PMC8448823, “Structural basis of RNA polymerase inhibition by viral and host factors” (Nature Communications, 2021)

Legend:
Conditions in all cases: both partners purified
[1] = biological target: T1, Rpo1′ subunit of Sulfolobus acidocaldarius RNA polymerase (Sulfolobus acidocaldarius, UniProt P11512 1-880); test: cryo-EM structure; apo-RNAP cross-linked with 2 mM BS3 for 5 min at 65 °C; 20 mM Hepes pH 7.0, 200 mM NaCl, 5 mM MgCl2; map at 2.88 Å
T1 construct: Rpo1′, subunit of the Sulfolobus acidocaldarius RNA polymerase (clamp, rim helices, bridge helix); Stood within the whole 13-subunit RNAP; source: part of the RNAP purified from Saci strain MW001
T1 sequence (P11512 whole entry): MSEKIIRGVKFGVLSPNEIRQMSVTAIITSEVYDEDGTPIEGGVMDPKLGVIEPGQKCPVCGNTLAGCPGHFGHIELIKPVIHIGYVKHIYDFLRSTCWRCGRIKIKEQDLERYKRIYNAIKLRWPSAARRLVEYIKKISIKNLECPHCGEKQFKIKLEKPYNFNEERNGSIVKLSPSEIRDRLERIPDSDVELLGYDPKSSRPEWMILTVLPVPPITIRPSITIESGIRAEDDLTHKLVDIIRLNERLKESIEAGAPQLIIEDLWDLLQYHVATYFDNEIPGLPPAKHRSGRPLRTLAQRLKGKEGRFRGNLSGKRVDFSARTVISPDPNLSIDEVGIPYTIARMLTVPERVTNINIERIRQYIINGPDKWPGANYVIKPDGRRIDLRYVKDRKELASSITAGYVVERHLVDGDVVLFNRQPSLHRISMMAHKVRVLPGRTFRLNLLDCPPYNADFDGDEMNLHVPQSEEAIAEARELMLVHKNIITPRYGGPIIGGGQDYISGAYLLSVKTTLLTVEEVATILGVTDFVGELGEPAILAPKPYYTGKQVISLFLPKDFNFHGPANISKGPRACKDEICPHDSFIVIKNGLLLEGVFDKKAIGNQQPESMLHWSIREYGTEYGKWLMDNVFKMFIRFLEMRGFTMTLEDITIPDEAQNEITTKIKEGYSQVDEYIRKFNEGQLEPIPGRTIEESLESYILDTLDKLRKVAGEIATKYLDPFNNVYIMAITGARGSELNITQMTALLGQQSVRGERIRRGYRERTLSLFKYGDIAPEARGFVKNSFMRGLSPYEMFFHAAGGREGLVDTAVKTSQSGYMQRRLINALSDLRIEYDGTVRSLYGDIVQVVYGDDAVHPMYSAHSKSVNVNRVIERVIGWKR

[2] = biological target: T1, Rpo1′ subunit of Sulfolobus …; test: cryo-EM structure; RNAP incubated and cross-linked (BS3, 65 °C) in presence of a 20 molar fold excess of TFS4; map at 2.61 Å
[3] = biological target: T2, Rpo2 subunit of Sulfolobus acidocaldarius RNA polymerase (Sulfolobus acidocaldarius, UniProt P11513 1-1126); test: as above
T2 construct: Rpo2, subunit of the Sulfolobus acidocaldarius RNA polymerase (protrusion and lobe); Stood within the whole 13-subunit RNAP; source: part of the RNAP purified from Saci strain MW001
T2 sequence (P11513 whole entry): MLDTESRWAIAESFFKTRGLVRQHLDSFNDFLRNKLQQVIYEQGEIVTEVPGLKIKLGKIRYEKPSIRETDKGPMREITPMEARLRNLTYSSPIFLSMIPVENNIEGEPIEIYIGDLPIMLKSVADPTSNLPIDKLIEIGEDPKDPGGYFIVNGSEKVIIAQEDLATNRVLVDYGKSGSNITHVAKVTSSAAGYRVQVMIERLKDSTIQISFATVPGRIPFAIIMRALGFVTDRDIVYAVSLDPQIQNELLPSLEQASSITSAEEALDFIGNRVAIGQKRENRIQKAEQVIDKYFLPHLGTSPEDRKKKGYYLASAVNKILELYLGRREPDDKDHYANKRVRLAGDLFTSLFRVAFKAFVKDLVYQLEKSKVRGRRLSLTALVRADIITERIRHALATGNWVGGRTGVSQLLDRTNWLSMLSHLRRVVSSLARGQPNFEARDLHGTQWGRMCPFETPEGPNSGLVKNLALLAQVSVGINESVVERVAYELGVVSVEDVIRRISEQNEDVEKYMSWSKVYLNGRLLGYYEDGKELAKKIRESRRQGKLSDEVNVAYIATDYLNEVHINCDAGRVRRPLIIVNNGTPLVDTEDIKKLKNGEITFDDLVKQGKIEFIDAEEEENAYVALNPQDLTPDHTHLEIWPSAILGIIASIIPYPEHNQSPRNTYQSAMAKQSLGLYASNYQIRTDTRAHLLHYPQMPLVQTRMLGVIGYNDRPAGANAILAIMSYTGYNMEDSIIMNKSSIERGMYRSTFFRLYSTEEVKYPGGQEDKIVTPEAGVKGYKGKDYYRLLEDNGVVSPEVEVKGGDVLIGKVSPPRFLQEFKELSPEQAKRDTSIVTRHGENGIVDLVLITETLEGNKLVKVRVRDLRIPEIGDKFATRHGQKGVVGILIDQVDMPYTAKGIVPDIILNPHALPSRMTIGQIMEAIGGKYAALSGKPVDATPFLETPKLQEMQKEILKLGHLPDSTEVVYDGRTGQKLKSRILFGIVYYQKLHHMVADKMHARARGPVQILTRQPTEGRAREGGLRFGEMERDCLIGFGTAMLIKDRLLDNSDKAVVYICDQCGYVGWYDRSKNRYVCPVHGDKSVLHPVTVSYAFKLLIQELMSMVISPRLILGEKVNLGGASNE

[4] = biological target: T3, Rpo1″ subunit of Sulfolobus acidocaldarius RNA polymerase (Sulfolobus acidocaldarius, UniProt P11514 1-393); test: as above
T3 construct: Rpo1″, subunit of the Sulfolobus acidocaldarius RNA polymerase (upper jaw, trigger loop); Stood within the whole 13-subunit RNAP; source: part of the RNAP purified from Saci strain MW001
T3 sequence (P11514 whole entry): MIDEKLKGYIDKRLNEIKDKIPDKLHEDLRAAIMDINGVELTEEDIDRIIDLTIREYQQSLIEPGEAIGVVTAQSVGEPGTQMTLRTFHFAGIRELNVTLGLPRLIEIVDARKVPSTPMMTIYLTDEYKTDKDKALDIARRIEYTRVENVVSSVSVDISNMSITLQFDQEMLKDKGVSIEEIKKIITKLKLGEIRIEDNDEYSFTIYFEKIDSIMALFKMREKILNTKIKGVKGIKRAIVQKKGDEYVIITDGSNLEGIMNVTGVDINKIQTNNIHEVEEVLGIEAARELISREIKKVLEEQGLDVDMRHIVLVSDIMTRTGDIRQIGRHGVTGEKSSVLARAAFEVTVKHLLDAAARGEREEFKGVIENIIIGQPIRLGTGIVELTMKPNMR

[5] = biological target: T1, Rpo1′ subunit of Sulfolobus …; test: cryo-EM structure; RNAP incubated with a 10-fold excess of RIP for 5 min at 65 °C, then cross-linked with 2 mM BS3; 20 mM Hepes pH 7.0, 200 mM NaCl, 5 mM MgCl2; map at 3.27 Å
[6] = biological target: T2, Rpo2 subunit of Sulfolobus …; test: as above

B1: Rpo8 subunit of Sulfolobus acidocaldarius RNA polymerase (natural protein)
chain: MMQGTCKISSIEKGALKNLYVVKMDCDNDLKIEFDITKELSIFSKDEEVTFIISREKPEYSEKDFCAHGYLFLERQQEDGSFIDEISLYGLIVKILSKNGLINSKLFKMMDHVYYCVKKKA
notes: Rpo8, subunit of the Sulfolobus acidocaldarius RNA polymerase; holds the conserved GGLLM motif; Stood within the whole 13-subunit RNAP; source: part of the RNAP purified from Saci strain MW001
[1]
  binding result: binds

B2: Sso TFS4 (natural protein)
chain: MRFCPKCGSFLKVKGNKMVCSKCGYSDHDVEKVILKENVAHENDKTIIADGETIEGRVAISLCPRCGSVRAILLNKKKRLYRCMTCNFVYNI
notes: TFS4, paralogue of the transcript cleavage factor TFS; two zinc-ribbon domains ZR^N and ZR^C joined by a linker; expressed without tag; source: E. coli BL21 pLysS, purified (heat step 65 °C, HiTrap Q, Superose 12)
[2]
  binding result: binds
[3]
  binding result: binds
[4]
  binding result: binds

B3: ATV RIP (RNAP Inhibitory Protein, ORF145) of Acidianus two-tailed virus (natural protein, Acidianus two-tailed virus (ATV))
chain: MKNMLHPQKYETHVLDDLMEFYEGVIGYPEIDLRLAGEEAWLKGVNPELAEAVKKIIKTIRRYLEGSPYDGSEKPIPRYIIAEIFSQIAPEVQLLVNALDTEGKYGFLKHIKKLNLNSLAMLSKNYNENDKLWKELENEGYVYLE
notes: RIP (ORF145) of Acidianus two-tailed virus (ATV); 145 aa printed; residues 10–127 resolved in the RNAP–RIP structure; source: E. coli BL21 pLyS, purified (heat step 60 °C, Ni-column, TEV cleavage, second Ni-column); not shown: 6×His, N-terminal, cleaved
[5]
  binding result: binds
[6]
  binding result: binds
